Series [1] concerns the target Recombinant M. tuberculosis H37Rv dodecin with C-terminal 6-His tag (Mycobacterium tuberculosis H37Rv) (UniProt I6XY36). Description: SDS-PAGE and western blotting of oligomer bands. (In general: A western blot detects proteins with antibodies after separation by electrophoresis.)
For series [2] the target is unchanged. Description: SDS-PAGE and western blotting of oligomer bands. The source holds these as a separate data set.
Series [3] concerns the target Recombinant M. bovis BCG Moreau dodecin with C-terminal 6-His tag (M. bovis BCG Moreau). The series can be described thus: SDS-PAGE and western blotting of oligomer bands.
For series [4] the target is unchanged. Description: SDS-PAGE and western blotting of oligomer bands. The source holds these as a separate data set.
The target in series [5] is Native M. bovis BCG Moreau dodecin (M. bovis BCG Moreau (endogenous)). Description: SDS-PAGE and western blotting of oligomer bands; logarithmic phase mycobacterial lysates incubated 30 min at 40 or 80 °C, supernatants on SDS-PAGE, blot with anti-dodecin serum.
The target is the same in series [6]. Description: SDS-PAGE and western blotting of oligomer bands; 20 ug total proteins of mycobacterial whole cell lysates (lag, logarithmic and stationary phase; 50 mM HEPES/KOH pH 7.5, 10 mM MgCl2, 60 mM NH4Cl, 10% glycerol), 15% SDS-PAGE, blot with anti-dodecin serum.
Series [7] concerns the molecule itself. The series is described as above.

Like-named read-outs stand apart in the source and are kept apart here.

Here are results for four molecules from PMC8044443, “M. bovis BCG Moreau N-Terminal Loss Leads to a Less Stable Dodecin With Lower Flavin Binding Capacity” (Frontiers in Cellular and Infection Microbiology, 2021).

The term stoichiometry N denotes a count of units in the complex or per binding partner. As for “Recombinant M. tuberculosis H37Rv dodecin with C-terminal 6-His tag (from UniProt I6XY36 1-70) (natural protein)”, the stoichiometry N in series [1] was 4; in series [2], 12. Take “Recombinant M. bovis BCG Moreau dodecin with C-terminal 6-His tag (natural protein)”: the results for the stoichiometry N in series [3] and in series [4] were 12 and 4, respectively. For “Native M. bovis BCG Moreau dodecin (natural protein)”, the stoichiometry N in series [5] and in series [6] was 6 in each case.

B1: Native M. tuberculosis H37Rv dodecin (natural protein)
chain: MSNHTYRVIEIVGTSPDGVDAAIQGGLARAAQTMRALDWFEVQSIRGHLVDGAVAHFQVTMKVGFRLEDS
notes: also called M.tb native dodecin; Tb
In the case of B1, the “stoichiometry N” value in series [7] is 6.
